Usually Kd stands for the free concentration of one partner at which half of the binding sites on the other are occupied at equilibrium, for simple one-to-one binding.

Where no end group is shown, it is not given here. [ ]: non-standard residue; d: D form. pY = N[C@@H](Cc1ccc(OP(=O)(O)O)cc1)C(=O)O

Consider 1 molecule from article PMC8528861 (2021).

Experiment in all cases: SPR
One assay deals with mouse SH2B SH2 domain (mouse, UniProt Q91ZM2 527-625).
Assay [1] concerns the target M. musculus LNK SH2 domain R387C (mouse, UniProt O09039 325-438, R387C).
Assay [2] has as its target M. musculus LNK SH2 domain R387H (mouse, UniProt O09039 325-438, R387H).
The target of assay [3] is M. musculus LNK SH2 domain (residues 324–446), wild type (mouse, UniProt O09039 324-446).
M. musculus LNK SH2 domain (residues 324–446), wild type, sequence (O09039 324-446): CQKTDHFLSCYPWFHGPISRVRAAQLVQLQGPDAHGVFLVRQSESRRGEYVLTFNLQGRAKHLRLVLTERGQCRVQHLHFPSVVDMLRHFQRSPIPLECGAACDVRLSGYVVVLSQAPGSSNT

M. musculus LNK SH2 domain R387C, sequence (O09039 325-438 R387C): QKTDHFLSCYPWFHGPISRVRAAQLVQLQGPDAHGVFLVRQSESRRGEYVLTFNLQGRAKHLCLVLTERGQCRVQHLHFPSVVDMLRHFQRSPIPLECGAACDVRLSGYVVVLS
M. musculus LNK SH2 domain R387H, sequence (O09039 325-438 R387H): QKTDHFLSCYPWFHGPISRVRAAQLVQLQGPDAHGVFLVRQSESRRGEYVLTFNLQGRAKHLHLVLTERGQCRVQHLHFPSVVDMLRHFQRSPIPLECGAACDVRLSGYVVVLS

Consider FTPD[pY]ELLTEND (also: biotin, site not given here) [biotinylated JAK2 pY813 peptide], for which the Kd in the assay with mouse SH2B SH2 domain is 108 nM; in assay [1], 76 nM; in assay [2], 242 nM; in assay [3], 27 nM.
